These results are taken from article PMC4499152.

Like-named read-outs stand apart in the source and are kept apart here.

Data set [1] concerns the target T1, RPA complex (UniProt P27694;P15927;P35244 1-616;1-270;1-121). Put plainly: pull-down.
The target in data set [2] is T1, RPA complex. Nature of the data set: pull-down. The source holds these as a separate data set.

T1 sequence (P27694 whole entry, chain 1 of 3): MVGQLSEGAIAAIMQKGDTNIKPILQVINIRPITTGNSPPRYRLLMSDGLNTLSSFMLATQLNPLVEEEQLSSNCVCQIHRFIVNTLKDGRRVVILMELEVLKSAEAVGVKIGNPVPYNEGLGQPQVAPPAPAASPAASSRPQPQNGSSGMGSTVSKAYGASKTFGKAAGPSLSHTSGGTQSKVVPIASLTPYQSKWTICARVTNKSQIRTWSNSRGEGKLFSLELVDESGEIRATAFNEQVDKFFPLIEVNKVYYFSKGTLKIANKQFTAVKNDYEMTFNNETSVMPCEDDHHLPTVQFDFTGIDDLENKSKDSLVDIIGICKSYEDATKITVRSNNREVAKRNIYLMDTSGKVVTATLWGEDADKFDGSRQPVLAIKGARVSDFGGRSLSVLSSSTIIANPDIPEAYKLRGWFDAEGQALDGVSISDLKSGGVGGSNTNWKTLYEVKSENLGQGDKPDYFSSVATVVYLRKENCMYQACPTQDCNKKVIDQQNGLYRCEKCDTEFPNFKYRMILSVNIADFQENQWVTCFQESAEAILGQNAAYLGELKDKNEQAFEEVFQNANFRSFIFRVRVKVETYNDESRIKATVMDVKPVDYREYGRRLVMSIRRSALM
T1 sequence (P15927 whole entry, chain 2 of 3): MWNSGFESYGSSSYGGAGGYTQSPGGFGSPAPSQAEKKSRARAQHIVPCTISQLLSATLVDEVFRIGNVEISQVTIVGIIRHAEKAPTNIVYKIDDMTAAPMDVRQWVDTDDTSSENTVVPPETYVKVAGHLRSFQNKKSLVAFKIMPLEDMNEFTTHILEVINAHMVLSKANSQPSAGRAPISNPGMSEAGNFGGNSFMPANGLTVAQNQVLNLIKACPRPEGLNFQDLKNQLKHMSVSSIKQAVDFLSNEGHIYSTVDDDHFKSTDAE
T1 sequence (P35244 whole entry, chain 3 of 3): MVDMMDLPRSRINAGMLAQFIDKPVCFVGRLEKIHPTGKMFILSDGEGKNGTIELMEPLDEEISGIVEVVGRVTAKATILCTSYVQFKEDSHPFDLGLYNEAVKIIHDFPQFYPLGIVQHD

As to TTTGCGTTTGCGTTTGCGTTTGCGTTTGCGTTTGCGTTTGCGTTTGCG (ssDNA) [ssMUT], the binding result with RPA complex [1] is “binds”.

TTAGGGTTAGGGTTAGGGTTAGGGTTAGGGTTAGGGTTAGGGTTAGGG (ssDNA) [ssTEL]: in the data set with RPA complex [2], the binding result is “binds”.
